Results on four molecules are retold here after patent US20190241662A1 (ADAGENE, published 2019).

The target of assay [1] is T1, recombinant human CTLA4-Fc (human, UniProt P16410 36-162).
T1 construct: also called human CTLA4 fused with human FC fragment; CTLA4-Fc (Sino Biological, 11159-H03H)
T1 sequence (looked up): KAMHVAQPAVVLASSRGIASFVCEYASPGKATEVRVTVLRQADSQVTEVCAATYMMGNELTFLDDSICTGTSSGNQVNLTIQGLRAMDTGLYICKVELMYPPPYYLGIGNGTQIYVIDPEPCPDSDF
Briefly: ELISA, coated human CTLA4-Fc. As to the method:
(§1) The ability of certain IgG antibodies to bind to soluble human (FIG. 1A, Table 5A) or canine (FIG. 1B, Table 5B) CTLA4 was next tested. 1 μg/mL human CTLA4 fused with human FC fragment, or canine CTLA4 fused with His tag, were prepared and used to coat an ELISA plate at 2-8° C. overnight. After blocking, 100 μL serial diluted IgG antibodies were added and incubated at 37° C. for 1 hour. Plates were washed for four times and then incubated with HRP-anti human IgG (Fab specific) (1:6000 dilution) at 37° C. for 1 hour. Plates were washed again four times and incubated with TMB substrate for 15 minutes at room temperature. […] The data was analyzed by Graphpad Prism 6 with nonlinear fitting.
Background: In an ELISA, binding on a coated surface is turned into a signal by an enzyme label.

In assay [2] the target is T2, canine CTLA4 fused with His tag (canine, UniProt Q9XSI1 36-162, limits assumed).
T2 construct: also called dog CTLA4
T2 sequence (looked up): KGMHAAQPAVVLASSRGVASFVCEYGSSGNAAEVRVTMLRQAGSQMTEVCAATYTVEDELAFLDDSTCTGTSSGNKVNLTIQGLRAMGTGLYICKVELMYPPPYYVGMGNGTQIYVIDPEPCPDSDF
As to the kind of experiment: ELISA, coated canine CTLA4-His. As for the experimental part: as §1

Assay [3] addresses T3, recombinant human CTLA4 protein (construct not stated) (human, UniProt P16410 36-162, limits assumed).
T3 construct: also called biotinylated human CTLA4; human recombinant CTLA4 proteins
T3 sequence (looked up): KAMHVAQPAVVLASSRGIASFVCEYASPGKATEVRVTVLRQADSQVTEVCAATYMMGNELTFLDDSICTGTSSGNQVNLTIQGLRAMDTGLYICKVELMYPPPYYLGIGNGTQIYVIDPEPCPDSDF
Briefly: SPR (Biacore T200), IgG captured by anti-human Fc. From the text:
(§2) Binding affinity and kinetics of antibodies against human, monkey and mouse CTLA4 were examined (Table 4) by surface plasmon resonance (SPR) analysis using a Biacore™ T200 instrument (Biacore AB, Uppsala, Sweden) according to the manufacturer's guidelines. Anti-Human IgG (Fc) antibody from Human Antibody Capture Kit (GE BR-1008-39) was immobilized on CM5 chips by coupling of its amine groups onto carboxylated surfaces of sensor chips according to the instructions of an Amine Coupling kit (GE Biacore #BR-1000-50). […] The association and dissociation curves were fitted to a 1:1 Langmuir binding model using Biacore T200 Evaluation Software (Biacore AB) according to the manufacturer's guidelines.

Assay [4] has as its target T4, monkey CTLA4 (SPR analyte, construct not stated) (monkey, UniProt G7PL88 36-161).
T4 sequence: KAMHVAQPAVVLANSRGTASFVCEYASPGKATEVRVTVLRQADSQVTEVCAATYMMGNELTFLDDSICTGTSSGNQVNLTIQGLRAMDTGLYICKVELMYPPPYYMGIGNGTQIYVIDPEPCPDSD
Briefly: SPR (Biacore T200), IgG captured by anti-human Fc.
From the text: as §2
(SPR reads the build-up and loss of mass on a sensor chip optically.)

Assay [5] addresses T5, recombinant human CTLA4 fused with human Fc and His tag (human, UniProt P16410 36-162, limits assumed).
T5 construct: Coated in the CD80 ELISA, biotinylated and in solution in the CD86 ELISA; also called biotinylated human CTLA4 fused with human FC and His tag
T5 sequence (looked up): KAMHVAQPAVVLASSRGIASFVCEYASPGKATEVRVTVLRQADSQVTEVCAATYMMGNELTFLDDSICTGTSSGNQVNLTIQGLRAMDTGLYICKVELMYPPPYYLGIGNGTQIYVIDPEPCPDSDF
As to the kind of experiment: competition ELISA: plate-bound human CTLA4-Fc-His, biotinylated CD80 as blocked ligand. As to the method: Antibodies were then tested for their ability to block binding of CTLA4 to its cognate ligands CD80 and CD86 by ELISA. […] Plates were blocked with PBS supplemented with 2% (w/v) skim milk at 37° C. for 1 hour. […] Plates were washed four times, and 100 μL HRP-neutravidin (1:1000) was added to each well and incubated at 37° C. for 1 hour. Plates were washed as previously described, and 50 μL TMB substrate solution was added and incubated at room temperature for 5 minutes before the reaction was stopped by 50 μL sulfate acid (2M).

In assay [6] the target is mouse CTLA4 (SPR analyte, construct not stated) (mouse, UniProt P09793 36-162, limits assumed). As to the kind of experiment: SPR (Biacore T200), IgG captured by anti-human Fc.
From the text: as §2

Assay [7] has as its target T6, full-length human CTLA4 expressed on cells (human, UniProt P16410 36-223).
T6 construct: whole, on cells; also called HEK293F/hCTLA-4 cells; HEK293F/hCTLA4 cells
T6 sequence (looked up): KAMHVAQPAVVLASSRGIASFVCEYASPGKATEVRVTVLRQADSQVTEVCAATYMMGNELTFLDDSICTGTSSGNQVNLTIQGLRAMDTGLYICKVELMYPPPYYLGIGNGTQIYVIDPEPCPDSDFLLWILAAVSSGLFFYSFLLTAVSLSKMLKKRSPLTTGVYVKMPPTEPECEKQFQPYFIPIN
Briefly: flow cytometry, transfected HEK293F cells, 100 nM antibody [Cont.]. As for the experimental part: Antibody selectivity was next examined. Human CTLA4, PD1, LAG3, Tim3, B7H3, CD95, TNFR1, OX40, CD40, PD-L1, BLTA, VISTA, PDL2, ICOS and B7H4 were transiently overexpressed on the surface of HEK293F cells. Transfected cells were washed in pre-chilled 1×PBSA buffer (1.76 mM KH2PO4, 10.14 mM Na2HPO4.12H2O, 2.68 mM KCl, 136.89 mM NaCl and 1% BSA), then incubated with 100 nM test antibodies for 1 hour on ice. Cells were washed once with staining buffer, and Alexa Fluor® 647 conjugated mouse anti-human FC antibodies were added and incubated for 30 minutes on ice, protected from light. Samples were washed once with staining buffer prior to analysis by flow cytometry.
Background: A flow cytometer gives signals particle by particle.

B1: TY21591 (antibody, V domains shown)
VH: EVQLVESGGGLVQPGGSLRLSCAASGFSLSTGGVAVSWIRQAPGKGLEWIGEIYHSGSTYYSPSLKSRVTISRDNSKNTLYLQLNSLRAEDTAVYYCARRIATATYFDYWGQGTLVTVSS
VL: DIQLTQSPSSLSASVGDRVTITCRASQTVFSRYLAWYQQKPGKAPKLLIYDASNRATGIPSRFSGSGSGTDFTLTISSLQPEDFATYYCQQSYYWPPWTFGQGTKVEIK
notes: human IgG1 (hIgG1) from Fab hit B15756
B1: the EC50 in assay [1] is 0.831 nM; in assay [2] it was 0.707 nM. The Kd in assay [1] was found to be 0.83 nM; in assay [2], 0.71 nM; in assay [3], 9.68 nM; in assay [4] it was 3.27 nM. For the same molecule, the LogEC50 in assay [1] was -9.08; in assay [2], -9.15. The “IC50 (read off the curve)” value in assay [5] was about 10 nM.

B2: TY21687 (antibody, V domains shown)
VH: EVQLVESGGGLVQPGGSLRLSCAASGFTFSGYAIHWVRQAPGKGLEWIGIISPSGGGTKYAQKFQGRVTISRDNSKNTLYLQLNSLRAEDTAVYYCARHPFAYWGQGTLVTVSS
VL: DIQLTQSPSSLSASVGDRVTITCRASQSVDFYGISFLDWYQQKPGKAPKLLIYDASNRATGIPSRFSGSGSGTDFTLTISSLQPEDFATYYCQQYVSSPPEYTFGQGTKVEIK
notes: human IgG1 (hIgG1) from Fab hit B15700
With B2, the EC50 came to 0.32 nM in assay [1] and 0.745 nM in assay [2]. Besides, the Kd in assay [1] is 0.32 nM; in assay [2], 0.75 nM; in assay [3], 1.82 nM; in assay [4] it was 1.52 nM; in assay [6] it was 2.76 nM. The LogEC50 in assay [1] is -9.49; in assay [2], -9.13. The “% of cells in upper right quadrant (Q2)” value in assay [7] came out at 75.7%. The “IC50 (read off the curve)” value in assay [5] is about 20 nM.

B3: TY21585 (antibody, V domains shown)
VH: EVQLVESGGGLVQPGGSLRLSCAASGFTFSDYAIHWVRQAPGKGLEWIGIISPSSGSTNYAQKFQGRVTISRDNSKNTLYLQLNSLRAEDTAVYYCARDIHSGSSGYYYGFDVWGQGTLVTVSS
VL: DIQLTQSPSSLSASVGDRVTITCRASESVDFFGISFLAWYQQKPGKAPKLLIYDASNRATGIPSRFSGSGSGTDFTLTISSLQPEDFATYYCQHYTSSPPVYTFGQGTKVEIK
notes: human IgG1 (hIgG1) from Fab hit B15709
As for B3, the EC50 was 0.555 nM in assay [1] and 6.04 nM in assay [2]. The dissociation constant Kd in assay [1] came out at 0.56 nM; in assay [2] it was 6.05 nM; in assay [3], 8.15 nM; in assay [4] it was 8.26 nM; in assay [6], 1.71 nM. In addition, the LogEC50 is -9.26 in assay [1] and -8.22 in assay [2]. Moreover, the “% of cells in upper right quadrant (Q2)” value in assay [7] was 36.3. The “Mean” value in assay [7] is 6190. Also, in assay [5], the “IC50 (read off the curve)” value was about 10 nM.

B4: TY21691 (antibody, V domains shown)
VH: EVQLVESGGGLVQPGGSLRLSCAASGFTFSDYAIHWVRQAPGKGLEWIGIISPSGGSTKYAQKFQGRVTISRDNSKNTLYLQLNSLRAEDTAVYYCARLGYGYFDVWGQGTLVTVSS
VL: DIQLTQSPSSLSASVGDRVTITCRASQSVDFYGISFLHWYQQKPGKAPKLLIYDASSLESGVPSRFSGSGSGTDFTLTISSLQPEDFATYYCVQALQLPLTFGQGTKVEIK
notes: human IgG1 (hIgG1) from Fab hit B15736
As to B4, the results for the Kd in assay [3], in assay [4] and in assay [6] were 2.08 nM, 2.44 nM and 1.46 nM, respectively. Further, the “IC50 (read off the curve)” value in assay [5] is about 20 nM.

A word on the EC50: it is the midpoint of the concentration-response curve. As a reminder, the Kd is the constant that tells how readily two partners part at equilibrium.
